# Where a SMILES comes first, the peptide text is derived from it. The star is where a group is joined. Cbz = O=C(OCc1ccccc1)*
# Columns and labels:
# XIAP [1] = assay: XIAP protein levels by Western blot in COS-7 cells; assay type: cell-based, African Green Monkey
# Method: (§1) Protein extracts were prepared with lysis buffer (150 mM NaCl, 50 mM Tris-HCl (pH 8), 1% NP-40, 0.5% deoxycholate acid) with protease inhibitors. Lysates containing equal amounts of total protein were pre-cleared overnight with 1 mg mouse IgG (Sigma) coupled with protein A/G-Sepharose mix (Amersham Biosciences) and the beads centrifuged. Supernatants were immuno-precipitated using 5 μl of anti-ARTS antibody for 4 h, anti-XIAP antibody, rabbit anti-myc antibody, or mouse IgG (negative control). Protein A/G Sepharose beads were added for 1 hour and washed four times with PBS. Antibodies against XIAP (as above), Myc (Santa Cruz), or anti-ARTS (NT) antibodies directed against the common N′ terminus of ARTS and H5 (ProSci Incorporated) were used for Western blot.
# (§2) Stably transfected COS-7 pE-ARTS cells were generated using the pEF1-IRES vector (Hobbs S et al, Biochem Biophys Res Commun 252: 368-372, 1998). The construct contains an EF-1 promoter followed by a multi cloning site, an EMC (Encephalomyocarditis virus) internal ribosome entry sites (IRES), and a puromycin resistance gene. AU5-tagged ARTS was inserted into the XhoI site downstream of the EF-1 promoter. The construct was stably transfected into COS-7 cells. The cells were maintained in medium containing 4 μg/ml puromycin.
# Cells were treated for 2 hours with […] of the proteasome inhibitor (MG132, Calbiochem) prior to induction of apoptotis.
# XIAP [2] = assay: Co-immunoprecipitation of ARTS-XIAP complexes in COS-7 cells; assay type: cell-based, African Green Monkey
# Method: as §1
# COS-7 cells [3] = assay: Immunofluorescence of ARTS and XIAP localization in COS-7 cells; assay type: cell-based, African Green Monkey; conditions: COS-7 cells, 50 μM etoposide for 16 hour, with BOC
# Method: Cells were fixed with 4% paraformaldehyde in PBS for 20 min at room temperature, washed with PBS, permeabilized with 0.5% Triton-X in PBS for 5 min, and incubated with primary antibodies for 2 hours at room temperature (rabbit polyclonal anti-ARTS (1:20,000; Sigma), monoclonal anti-ARTS, and/or monoclonal anti-XIAP (1:500; used in subsequent Examples). Cells were washed three times with PBS/0.1% Triton-X and incubated with FITC conjugated anti-mouse and Rhodamin^TX-conjugated anti-rabbit secondary antibodies (Jackson). Images were analyzed using a confocal laser microscope (Zeiss LSM 510). Mitochondria were visualized with MitoTracker® Red CMXRos (Molecular Probes/Invitrogen).
# For caspase inhibition, we added […] of BOC-Asp(Ome)CH2F (Enzyme Systems Products) one hour prior to addition of the apoptotic agents.
# GST-XIAP fusion protein = target: T1, GST-XIAP fusion protein (Homo sapiens (Human), UniProt P98170 1-497); assay: GST-XIAP pull-down from lysate of transfected COS-7 cells, Western blot with anti-AU5
# T1 construct: also called pGEX-XIAP; not shown: glutathione-S-transferase (GST) of a pGEX vector
# T1 sequence (P98170 whole entry, the tested form may be a part): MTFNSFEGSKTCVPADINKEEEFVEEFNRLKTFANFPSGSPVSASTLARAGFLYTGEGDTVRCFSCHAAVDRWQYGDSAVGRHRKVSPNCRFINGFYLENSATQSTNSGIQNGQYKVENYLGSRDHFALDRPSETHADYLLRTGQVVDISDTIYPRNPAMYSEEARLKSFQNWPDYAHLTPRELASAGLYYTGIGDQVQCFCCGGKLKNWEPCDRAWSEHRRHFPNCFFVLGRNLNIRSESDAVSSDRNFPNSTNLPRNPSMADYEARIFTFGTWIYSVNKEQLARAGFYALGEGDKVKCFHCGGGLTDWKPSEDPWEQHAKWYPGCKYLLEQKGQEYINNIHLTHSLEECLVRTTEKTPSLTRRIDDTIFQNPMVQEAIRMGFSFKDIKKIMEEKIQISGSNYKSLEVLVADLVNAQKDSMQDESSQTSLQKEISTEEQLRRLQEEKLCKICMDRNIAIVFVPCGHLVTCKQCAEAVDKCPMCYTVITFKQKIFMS
# Method: FIG. 3. ARTS specifically binds XIAP in vitro. In vitro binding was tested using a GST pull-down assay. A-B. COS-7 cells were transiently transfected with myc-tagged XIAP. GST pull-down was performed using GST-ARTS and Western blot using anti-XIAP and (A) and anti myc (B). C. COS-7 cells were transiently transfected with AU5-ARTS, AU5-ARTSDC or AU5-H5. GST pull down was performed using GST-XIAP and Western blot with anti-AU5. Binding to glutathione beads alone served as a negative control.
# Cells were lysed in RIPA buffer (150 mM NaCl, 50 mM Tris-HCl (pH 8), 1% NP-40, 0.1% SDS, 0.5% deoxycholate acid containing protease inhibitors (mini Complete, Roche)). Samples were divided into two tubes; one was rotated for 4 h at 4° C. with GST-ARTS fusion protein coupled with the glutathione beads, or GST-XIAP fusion protein. The second tube was incubated with glutathione beads alone (negative control). Samples were centrifuged at 4000-RPM at 4° C. for 4 minute and washed five times in lysis buffer, then boiled in sample buffer for 5 minutes to elute bound proteins Proteins were separated on 12.5% SDS-PAGE gel followed by Western blot analysis using monoclonal anti-ARTS antibody (Sigma), monoclonal anti-XIAP antibody (BD Transduction Laboratories) or monoclonal anti-myc antibody (Clontech). […]
# [4] = target: T2, Myc epitope-tagged wild-type XIAP (Homo sapiens (Human), UniProt P98170 1-497); assay: co-IP with agarose-anti-myc beads from co-transfected COS-7 cells, Western blot
# T2 construct: Expressed by transient transfection in COS-7 cells and used as cell lysate; The construct came from Dr. Colin S. Duckett; also called myc-tagged XIAP; mycXIAP
# T2 sequence (P98170 whole entry): as the sequence (P98170 whole entry, the tested form may be a part) above
# Method: FIG. 4. ARTS binding to XIAP is specific and related to its apoptotic function. A. In-vivo binding of ARTS to XIAP was tested using co-IP with anti-ARTS, anti-XIAP or mouse IgG as a negative control, followed by anti-XIAP Western blot. B. Lysates of COS-7 cells co-transfected with pcDNA-mycXIAP and AU5-ARTS, AU5-ARTSmGTP or H5 DC were co-immunoprecipitated using agarose-anti-myc beads, followed by Western blot analysis with rabbit anti-myc and anti-ARTS. […] COS-7 cells were transiently transfected with AU5-ARTS, AU5-ARTSmGTP, AU5-ARTSDC or AU5-PNUTL2, and percent apoptosis determined. […] P-values (Anova) were 0.03 for non-treated cells, compared to 0.000004 for 1 hr and 0.00001 for 3 hr STS treatment.
# as §1, with “Antibodies against XIAP (as above), Myc (Santa Cruz), or anti-ARTS (NT) antibodies directed against the common N′ terminus of ARTS and H5 (ProSci Incorporated) were used for Western blot.” left out
# COS-7 cells [5] = assay: Apoptosis assays (TUNEL, anti-H2A.X) in COS-7 cells; assay type: cell-based, African Green Monkey; set-up: induction of apoptosis (TUNEL): dose or concentration left out as unconfirmed; conditions: transiently transfected COS-7 cells, staurosporine (STS) for 1 or 3 hours
# Method: Apoptotic cells were detected using the anti-H2A.X antibody (Upstate; Paull, et al., 2000) or TUNEL. For TUNEL assays, COS-7 cells were transiently transfected with AU5-ARTS, AU5-ARTSΔC, AU5-ARTSmGTP and AU5-H5. Twenty-four hours after transfection, the cells were treated with staurosporine (STS) ([…]) for 1 or 3 hours, then fixed and permeabilized. Apoptosis levels were determined using the TUNEL. In situ™ cell death detection TMR kit (Roche) according to the manufacturer's protocol. All slides were coded and experiments were performed in a blind manner.
# as §2
# XIAP [6] = target: T3, XIAP (Homo sapiens, UniProt P98170); assay: GST pull-down assay of ARTS and XIAP; assay type: binding; conditions: lysates of COS-7 cells transfected with AU5-tagged construct; Western blot anti-AU5
# T3 construct: made in house; host or cells: bacteria (pGEX-XIAP plasmid obtained from Dr. Colin S. Duckett)
# T3 sequence (P98170 whole entry): as the sequence (P98170 whole entry, the tested form may be a part) above
# From the text: For the glutathione-S-transferase (GST)-pull down assays, ARTS was subcloned into the pGEX 4T™ (Pharmacia Biotech) construct; GST-ARTS fusion protein was generated by Polymerase Chain Reaction (PCR) using the following primers: • BamHI-5′-[…]-3′ (SEQ ID No: 4) and • EcoRI-5′ […]-3′ (SEQ ID No: 5) and cloned into BamHI and EcoRI sites in pGEX 4T. Preparation of Beads
# For in vitro binding studies, recombinant GST-ARTS or GST-XIAP fusion proteins were purified from bacteria. After sonication, 0.1% Triton X-100 and protease inhibitors (Mini-Complete™, Roche) were added to the bacterial extract followed by 10,000 rotations per minute (RPM) centrifugation. Supernatants of bacterial extracts were collected and incubated in the presence of glutathione-Sepharose 4B beads (Amersham Biosciences) for 30 minute at 4° C. The beads were washed three times.
# Cells were lysed in RIPA buffer (150 mM NaCl, 50 mM Tris-HCl (pH 8), 1% NP-40, 0.1% SDS, 0.5% deoxycholate acid containing protease inhibitors (mini Complete, Roche)). Samples were divided into two tubes; one was rotated for 4 h at 4° C. with GST-ARTS fusion protein coupled with the glutathione beads, or GST-XIAP fusion protein. The second tube was incubated with glutathione beads alone (negative control). Samples were centrifuged at 4000-RPM at 4° C. for 4 minute and washed five times in lysis buffer, then boiled in sample buffer for 5 minutes to elute bound proteins Proteins were separated on 12.5% SDS-PAGE gel followed by Western blot analysis using monoclonal anti-ARTS antibody (Sigma), monoclonal anti-XIAP antibody (BD Transduction Laboratories) or monoclonal anti-myc antibody (Clontech).
molecule,measurement,setting,value
"CC(C)C[C@@H](C=O)NC(=O)[C@H](CC(C)C)NC(=O)[C@H](CC(C)C)NC(=O)OCc1ccccc1 [MG132, reference compound] (Cbz-Leu-Leu-Leu-aldehyde)",ARTS-induced reduction of XIAP levels,"XIAP [1]; cells treated for 2 hours with 20 mM MG132 prior to induction of apoptosis, data not shown",blocked ARTS-induced reduction of XIAP levels
"COC(=O)CC(NC(=O)OC(C)(C)C)C(=O)CF (centres unmarked) [BOC, BOC-Asp(Ome)CH2F, reference compound]",formation of ARTS-XIAP complexes,XIAP [2]; COS-7 cells treated with staurosporine in the presence of caspase inhibitor BOC,"did not inhibit, and in fact slightly increased"
same,nuclear translocation of ARTS,COS-7 cells [3],nuclear translocation of ARTS was blocked
same,sensitivity of the reduction of XIAP protein to caspase inhibition,XIAP [1]; COS-7 cells treated with staurosporine with or without BOC,not sensitive
"AU5-ARTS ΔC (other, 1-206 is 274 minus 68; also called AU5-ARTSDC; not shown: AU5 tag at the N' terminus) MIKRFLEDTTDDGELSKFVKDFSGNASCHPPEAKTWASRPQVPEPRPQAPDLYDDDLEFRPPSRPQSSDNQQYFCAPAPLSPSARPRSPWGKLDPYDSSEDDKEYVGFATLPNQVHRKSVKKGFDFTLMVAGESGLGKSTLVNSLFLTDLYRDRKLLGAEERIMQTVEITKHAVDIEEKGVRLRLTIVDTPGFGDAVNNTECWKPV",binding result,GST-XIAP fusion protein,no binding
"AU5-H5 (other, human, UniProt O43236-1 1-478, looked up, Expressed in transfected COS-7 cells; The construct came from Dr. Seong-Jin Kim; also called pEF1-AU5-H5; H5 septin protein; not shown: AU5 tag) MDRSLGWQGNSVPEDRTEAGIKRFLEDTTDDGELSKFVKDFSGNASCHPPEAKTWASRPQVPEPRPQAPDLYDDDLEFRPPSRPQSSDNQQYFCAPAPLSPSARPRSPWGKLDPYDSSEDDKEYVGFATLPNQVHRKSVKKGFDFTLMVAGESGLGKSTLVNSLFLTDLYRDRKLLGAEERIMQTVEITKHAVDIEEKGVRLRLTIVDTPGFGDAVNNTECWKPVAEYIDQQFEQYFRDESGLNRKNIQDNRVHCCLYFISPFGHGLRPLDVEFMKALHQRVNIVPILAKADTLTPPEVDHKKRKIREEIEHFGIKIYQFPDCDSDEDEDFKLQDQALKESIPFAVIGSNTVVEARGRRVRGRLYPWGIVEVENPGHCDFVKLRTMLVRTHMQDLKDVTRETHYENYRAQCIQSMTRLVVKERNRNKLTRESGTDFPIPAVPPGTDPETEKLIREKDEELRRMQEMLHKIQKQMKENY",binding result,GST-XIAP fusion protein,no binding
same,binding result,[4],no binding
"AU5-ARTSmGTP (other, not shown: AU5 tag at the N' terminus) MIKRFLEDTTDDGELSKFVKDFSGNASCHPPEAKTWASRPQVPEPRPQAPDLYDDDLEFRPPSRPQSSDNQQYFCAPAPLSPSARPRSPWGKLDPYDSSEDDKEYVGFATLPNQVHRKSVKKGFDFTLMVAGESGLENPTLVNSLFLTDLYRDRKLLGAEERIMQTVEITKHAVDIEEKGVRLRLTIVDTPGFGDAVNNTECWKPVAEYIDQQFEQYFRDESGLNRKNIQDNRVHCCLYFISPFGHGYGPSLRLLAPPGAVKGTGQEHQGQGCH",binding result,[4],no binding
"ARTSΔC: ARTS construct that lacks 68 amino acids at the unique ARTS C′-terminal sequence (protein, left off: small tags and cut ends) MIKRFLEDTTDDGELSKFVKDFSGNASCHPPEAKTWASRPQVPEPRPQAPDLYDDDLEFRPPSRPQSSDNQQYFCAPAPLSPSARPRSPWGKLDPYDSSEDDKEYVGFATLPNQVHRKSVKKGFDFTLMVAGESGLGKSTLVNSLFLTDLYRDRKLLGAEERIMQTVEITKHAVDIEEKGVRLRLTIVDTPGFGDAVNNTECWKPV",induction of apoptosis (TUNEL),COS-7 cells [5],did not induce apoptosis
same,binding to GST-XIAP,XIAP [6],Neither ARTSΔC nor H5 were able to bind to XIAP
"ARTSmGTP: ARTS mutant, three amino acids (G K S with E N P) replaced at the GTP binding site (protein, left off: small tags and cut ends) MIKRFLEDTTDDGELSKFVKDFSGNASCHPPEAKTWASRPQVPEPRPQAPDLYDDDLEFRPPSRPQSSDNQQYFCAPAPLSPSARPRSPWGKLDPYDSSEDDKEYVGFATLPNQVHRKSVKKGFDFTLMVAGESGLENPTLVNSLFLTDLYRDRKLLGAEERIMQTVEITKHAVDIEEKGVRLRLTIVDTPGFGDAVNNTECWKPVAEYIDQQFEQYFRDESGLNRKNIQDNRVHCCLYFISPFGHGYGPSLRLLAPPGAVKGTGQEHQGQGCH",binding to XIAP in co-IP,XIAP [2]; COS-7 cells co-transfected with pcDNA-mycXIAP and AU5-tagged construct,Neither of these mutants bound to XIAP
